Measurements published in the supplement of paper PMC10724198.
± gives the standard deviation of the averaged measurements.
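Note: PSI is a weighted mean of sequencing reads over stability bins, variants kept only with over 10 reads, mCherry proximal and sfGFP distal, peptide attached via GGGS linker.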

Each sequence was assayed on Saccharomyces cerevisiae (assay: protein stability index of tFT-peptide fusion (C-terminal peptide) (PSI (0-1 scale)); higher = more stable (slower turnover)). Details: genetic background: wild type; temperature: 30 C.
PRPPAPRTGPPP gave a protein stability index of 0.633 ± 0.011.
With PRPPHPPPSSPR the protein stability index was 0.69 ± 0.096.
PRPPPPRIPRPD was tested, and the protein stability index was 0.7 ± 0.12.
PRPPPPSVARVP gave a protein stability index of 0.64711 ± 0.0003.
With PRPPRWSSPWPV the protein stability index was 0.719 ± 0.058.
Work on PRPPYTPSPPHQ yielded a protein stability index of 0.774 ± 0.016.
Work on PRPRSPLSPLAL yielded a protein stability index of 0.676 ± 0.031.
PRPRTQPHPGPG gave a protein stability index of 0.711 ± 0.0096.
PRQLPVRKVSTG gave a protein stability index of 0.7042 ± 0.0022.
Work on PRRHLALLISEG yielded a protein stability index of 0.6868 ± 0.00082.
Work on PRRPAPSPLPTP yielded a protein stability index of 0.718 ± 0.2.
With PRRPATTSIPTT the protein stability index was 0.672 ± 0.038.
With PRRPLPPSPPRE the protein stability index was 0.729 ± 0.022.
PRRRLVLDDRPT was tested, and the protein stability index was 0.72823 ± 6.5e-05.
PRSPPHLRWTRY was tested, and the protein stability index was 0.686 ± 0.013.
With PRSPPLTHVSLH the protein stability index was 0.697 ± 0.043.
With PRSPPPPSPPPY the protein stability index was 0.583 ± 0.02.
PRSPPSPTLPHP gave a protein stability index of 0.609 ± 0.027.
In the case of PSAASIFLPFPL, the protein stability index is reported as 0.733 ± 0.048.
With PSAGPVVLPTPP the protein stability index was 0.704 ± 0.013.
In the case of PSCALAFRSEPH, the protein stability index is reported as 0.741 ± 0.018.
PSCDCFLLLAPR gave a protein stability index of 0.665 ± 0.055.
PSCPAFPSPPPS showed a protein stability index of 0.696 ± 0.014.
PSDTHTPDQPAK gave a protein stability index of 0.694 ± 0.056.
With PSELLPQLPSRW the protein stability index was 0.702 ± 0.019.
Work on PSETPSPLTLCS yielded a protein stability index of 0.722 ± 0.037.
PSFSPPQVPFPV gave a protein stability index of 0.721 ± 0.06.
PSGFPLRSYLPP gave a protein stability index of 0.707 ± 0.049.
Work on PSGPPPSLFPSA yielded a protein stability index of 0.661 ± 0.052.
PSHGSRPSPPLR was tested, and the protein stability index was 0.676 ± 0.034.
For PSHPPPPATPCP, the protein stability index was 0.7108 ± 0.0065.
For PSKTTALTGPDP, the protein stability index was 0.737 ± 0.008.
Work on PSLLSSPPPPLL yielded a protein stability index of 0.737 ± 0.073.
With PSLNNTMLKENK the protein stability index was 0.62 ± 0.061.
PSLPPDLPPPPA showed a protein stability index of 0.744 ± 0.011.
With PSLPPPRRPLSP the protein stability index was 0.671 ± 0.017.
In the case of PSLPPSPISPPH, the protein stability index is reported as 0.588 ± 0.013.
In the case of PSLPVPLVPPLS, the protein stability index is reported as 0.633 ± 0.014.
Sequence PSLPWSGPPVPC has a protein stability index of 0.664 ± 0.013.
Sequence PSLQPPLHYPPP has a protein stability index of 0.6448 ± 0.0044.
With PSLRPPPLPPLS the protein stability index was 0.7214 ± 0.0025.
PSPAALLPPPPP was tested, and the protein stability index was 0.643 ± 0.014.
With PSPALPSLSTPL the protein stability index was 0.669 ± 0.047.
In the case of PSPAPPPLPFPR, the protein stability index is reported as 0.72 ± 0.038.
With PSPAPTPPTPHS the protein stability index was 0.721 ± 0.28.
Sequence PSPCRPPHTSAG has a protein stability index of 0.646 ± 0.048.
In the case of PSPFPCVFRFSA, the protein stability index is reported as 0.635 ± 0.029.
Sequence PSPHRFPAPTLP has a protein stability index of 0.687 ± 0.039.
Work on PSPLPPPVSRPP yielded a protein stability index of 0.691 ± 0.049.
PSPLRASPTAVF gave a protein stability index of 0.62 ± 0.013.
PSPPAPFPVCLL gave a protein stability index of 0.617 ± 0.011.
In the case of PSPPFFLTAASL, the protein stability index is reported as 0.668 ± 0.01.
PSPPPAPPPHSP gave a protein stability index of 0.665 ± 0.022.
Work on PSPPPLSSPPSP yielded a protein stability index of 0.6425 ± 0.003.
In the case of PSPPPPPALPSH, the protein stability index is reported as 0.66 ± 0.13.
Work on PSPPPPPPPQPS yielded a protein stability index of 0.722 ± 0.059.
In the case of PSPPPPTVPHPP, the protein stability index is reported as 0.6779 ± 0.00096.
PSPPSRFPPCTP showed a protein stability index of 0.76987 ± 0.00013.
With PSPPTLILPPHP the protein stability index was 0.663 ± 0.0095.
PSPPTPHPPCRS was tested, and the protein stability index was 0.746 ± 0.013.
PSPPYLIPHALS showed a protein stability index of 0.676 ± 0.041.
PSPRPPPSPPLP showed a protein stability index of 0.695 ± 0.037.
PSPSAPPPLSPL was tested, and the protein stability index was 0.546 ± 0.052.
For PSPSFLVFATSY, the protein stability index was 0.628 ± 0.027.
PSPSPPLAPPVT gave a protein stability index of 0.647 ± 0.038.
PSPSPPRLLPPP showed a protein stability index of 0.7 ± 0.031.
With PSPSPSPPLPPP the protein stability index was 0.652 ± 0.0077.
In the case of PSPSRAPPMAPS, the protein stability index is reported as 0.6982 ± 0.0013.
Sequence PSPVLLPPFVSP has a protein stability index of 0.706 ± 0.0089.
PSRIRPPTASPP gave a protein stability index of 0.76 ± 0.061.
In the case of PSRPLPPPPPPL, the protein stability index is reported as 0.765 ± 0.14.
Sequence PSRPPPARSSPP has a protein stability index of 0.652 ± 0.0069.
PSRPPRLPPASF showed a protein stability index of 0.681 ± 0.046.
PSRSLSSPPSSR gave a protein stability index of 0.64 ± 0.019.
With PSSCSPPPSSPS the protein stability index was 0.692 ± 0.064.
PSSPPLPPPSPP was tested, and the protein stability index was 0.644 ± 0.03.
Work on PSSPPSLSPPLP yielded a protein stability index of 0.7177 ± 0.0034.
With PSSPPVLPLHFH the protein stability index was 0.728 ± 0.019.
With PSSPSPLRPPSP the protein stability index was 0.666 ± 0.096.
In the case of PSSSDHDTRQKK, the protein stability index is reported as 0.708 ± 0.058.
PSSSFFFLSSYL gave a protein stability index of 0.706 ± 0.043.
PSTHPPTLPRPC gave a protein stability index of 0.712 ± 0.024.
For PSTILLRYRPSV, the protein stability index was 0.825 ± 0.16.
Sequence PSTLPLRLPRMF has a protein stability index of 0.644 ± 0.057.
Sequence PSTPFAPPSATY has a protein stability index of 0.685 ± 0.014.
Work on PSWLLFGVHGGW yielded a protein stability index of 0.71 ± 0.056.
PTGQSSVESGAG gave a protein stability index of 0.693 ± 0.088.
In the case of PTGRGRSAYLVL, the protein stability index is reported as 0.6875 ± 0.0058.
In the case of PTHCWSGLSGKG, the protein stability index is reported as 0.703 ± 0.016.
With PTHPHLTLTETP the protein stability index was 0.687 ± 0.017.
In the case of PTIMYIRKTEER, the protein stability index is reported as 0.692 ± 0.043.
PTIRKDPLGFLR gave a protein stability index of 0.707 ± 0.0084.
For PTKKRQHSDRRK, the protein stability index was 0.644 ± 0.013.
For PTLFSLLLRAFL, the protein stability index was 0.623 ± 0.13.
For PTLSPRSPRFAS, the protein stability index was 0.755 ± 0.035.
PTNISEKVGAKS was tested, and the protein stability index was 0.671 ± 0.02.
PTPHPHTGSLEG was tested, and the protein stability index was 0.651 ± 0.011.
Sequence PTPHTTHPQNNT has a protein stability index of 0.729 ± 0.0062.
Work on PTPLPRISLTSV yielded a protein stability index of 0.667 ± 0.025.
For PTPPLLPPAPSP, the protein stability index was 0.707 ± 0.048.
In the case of PTPPPPPSPFAL, the protein stability index is reported as 0.804 ± 0.15.
With PTPPSPTPLPAT the protein stability index was 0.679 ± 0.043.
In the case of PTPSDRLPPPSH, the protein stability index is reported as 0.712 ± 0.0098.
With PTPVAHSLSLRI the protein stability index was 0.637 ± 0.033.
Sequence PTRFLPVPSLFS has a protein stability index of 0.679 ± 0.048.
Sequence PTSSPAPPLFAF has a protein stability index of 0.67 ± 0.028.
Sequence PTTAVNLPQGGT has a protein stability index of 0.68 ± 0.063.
In the case of PTVPYRLVLSTV, the protein stability index is reported as 0.511 ± 0.056.
PVALYFIREFSP showed a protein stability index of 0.699 ± 0.013.
PVAVSQPNGPKD showed a protein stability index of 0.633 ± 0.031.
For PVCIRSLGTALF, the protein stability index was 0.675 ± 0.0086.
PVCLHPPPSHTH gave a protein stability index of 0.737 ± 0.061.
For PVDFQSQGECEL, the protein stability index was 0.695 ± 0.0089.
Sequence PVFNDDTIIRNP has a protein stability index of 0.761 ± 0.032.
For PVFPPPAPTPPT, the protein stability index was 0.647 ± 0.046.
With PVINPSCIVMMW the protein stability index was 0.65 ± 0.04.
For PVPPPPPPFSLP, the protein stability index was 0.727 ± 0.032.
PVPPPPPPPLPP gave a protein stability index of 0.6 ± 0.03.
PVPPRSPPRLPF gave a protein stability index of 0.6673 ± 0.002.
PVPPTPPHPGPL was tested, and the protein stability index was 0.617 ± 0.059.
Work on PVPRCGLPLSLP yielded a protein stability index of 0.685 ± 0.1.
Work on PVSALHLSLSCP yielded a protein stability index of 0.698 ± 0.028.
In the case of PVSFPFPISSLS, the protein stability index is reported as 0.701 ± 0.062.
PVSPRLLLRFTL was tested, and the protein stability index was 0.691 ± 0.14.
With PVSVSSFFLSRF the protein stability index was 0.767 ± 0.21.
Work on PVVRISRLSFFA yielded a protein stability index of 0.674 ± 0.007.
In the case of PWRPTNPADRSV, the protein stability index is reported as 0.61 ± 0.1.
With PWWSRPAASVGV the protein stability index was 0.659 ± 0.047.
PYCVTLTLPFSS gave a protein stability index of 0.7134 ± 0.0047.
Work on PYEFRLISRNTR yielded a protein stability index of 0.669 ± 0.095.
For PYFPLRPPSLPI, the protein stability index was 0.6747 ± 0.0011.
For PYFSLFSRRSLN, the protein stability index was 0.539 ± 0.02.
In the case of PYFVGSGLVVLC, the protein stability index is reported as 0.5639 ± 0.0055.
PYHARPDRSLSG showed a protein stability index of 0.693 ± 0.035.
PYIFLPLGRAGN gave a protein stability index of 0.723 ± 0.076.
Sequence PYPVTLSRPTPT has a protein stability index of 0.611 ± 0.15.
For PYRPYLLPGSLA, the protein stability index was 0.632 ± 0.099.
Work on QAANPWQRPFGW yielded a protein stability index of 0.689 ± 0.087.
With QAGARGRRGVRG the protein stability index was 0.678 ± 0.016.
QAGGEYGLKVRW was tested, and the protein stability index was 0.805 ± 0.033.
In the case of QAGKPLYVEMVS, the protein stability index is reported as 0.609 ± 0.021.
QCLTVPRSAHLP showed a protein stability index of 0.607 ± 0.05.
Sequence QDLLNVSSFTRS has a protein stability index of 0.727 ± 0.017.
QEQITKETDLTH showed a protein stability index of 0.663 ± 0.013.
Sequence QEREAGVTALIR has a protein stability index of 0.707 ± 0.04.
QFEEFKRGFEVA showed a protein stability index of 0.722 ± 0.024.
QFQRTLCGKRWV gave a protein stability index of 0.685 ± 0.043.
QFQVWGAPGLKR gave a protein stability index of 0.711 ± 0.12.
With QFVSALVCLSVG the protein stability index was 0.5534 ± 0.0015.
QGCAWWGGGAGG showed a protein stability index of 0.684 ± 0.038.
With QGEKDFRMGSIK the protein stability index was 0.632 ± 0.015.
With QGELHRDVYIVI the protein stability index was 0.6793 ± 0.0013.
Work on QGKPSKWRSGSI yielded a protein stability index of 0.646 ± 0.048.
QGRIVSVILLSL showed a protein stability index of 0.557 ± 0.023.
With QHVDRFVGVNRE the protein stability index was 0.715 ± 0.051.
In the case of QIESNLGYWGIG, the protein stability index is reported as 0.73819 ± 0.00032.
Sequence QILPVLSKPTWI has a protein stability index of 0.736 ± 0.057.
QIQNRVDYRIKL was tested, and the protein stability index was 0.6353 ± 0.0031.
With QITYKTLSGINM the protein stability index was 0.703 ± 0.065.
In the case of QKEETGGLGGGK, the protein stability index is reported as 0.6609 ± 0.0025.
